Key:
[1] = target: GST-hERK1 recombinant protein (human) (UniProt P27361); assay: non-reducing SDS-PAGE after pull-down, band identified by MALDI-TOF-MS; GST-hERK1 on GSH-agarose incubated with HeLa mitochondrial extract, high stringency; electrophoresis in the absence of β-ME or DTT; band of MW ~130
[2] = target: endogenous phospho-ERK1/2 (human (endogenous in HeLa)) (UniProt P27361); assay: FRET or BRET; acceptor photobleaching FRET in fixed untransfected HeLa cells; endogenous phospho-ERK1/2 and partner labelled with primary antibodies and Cy3- or Cy5-conjugated secondary antibodies; Cy3/Cy5 pair
hERK1-GFP (human) = hERK1-GFP (human) (UniProt P27361); assay: FRET or BRET; acceptor photobleaching FRET in fixed HeLa cells transfected with hERK1-GFP; partner labelled with primary antibody and Cy3-conjugated secondary antibody; GFP/Cy3 pair

## GST-hERK1 recombinant protein (from UniProt P27361 1-379) (enzyme)
[1]
  stoichiometry N: 2

## Histone H2A (from UniProt P0C0S8 1-130) (natural protein)
[2]
  mean FRET efficiency: 0.17
hERK1-GFP (human)
  FRET efficiency (nuclei): 0.3

## Histone H4 (from UniProt P62805 1-103) (natural protein)
hERK1-GFP (human)
  FRET efficiency (nuclei): 0.2

## Porin 31HL (VDAC1), voltage-dependent anion channel 1 (from UniProt P21796 1-283) (natural protein)
hERK1-GFP (human)
  mean FRET efficiency (cytoplasm): 0.3

Source: PMC2760858
